Key:
[1] = test system: HCV-Luc replicon; assay: HCV-Luc replicon luciferase assay in Huh-7 cells; type: cell-based, hepatitis C virus; conditions: peptide added to Huh-7 cells containing the replicon; 48 hours
Procedure: HCV Replicon assays: Huh-7 cells were transiently transfected with replicon RNA having a firefly (P. pyralis) luciferase gene (0.2 μg/well), and with a control plasmid pRL (0.05 μg/well) having a renilla (R. reniformis) luciferase gene, using DMRIEC (Invitrogen) reagent as per the kit protocol (19). The specific additions of pmNS3, mutant replicon, pwt-NS3 etc were done concurrently. The cells were lysed after 48 hours, and luciferase activity detected using the DUAL LUCIFERASE assay kit (Promega) (24, 25).
Trans complementation assays: These assays were performed in the same manner as the regular replicon assays except that in the trans complementation assays two RNA's of different replicons (wild type and the mutant) were added along with a pRL plasmid to control for transfection efficiency.
In vivo the dominant negative mNS3 (pmNS3) down regulates the activity of the HCV-Luc replicon: Huh-7 cells were plated in a 12-well plate at 0.1 million cells per well. […]
The peptide was introduced into Huh-7 cells containing the HCV luciferase replicon. 48 hours after introduction of the peptide, luciferase activity was measured. […]

[2] = target: fluorescein-labeled U20 RNA; assay: RNA binding assay by fluorescence polarization; conditions: 37° C.
Procedure: (§1) FIGS. 10A and B. Binding of mutant NS3h to fluorescein-labeled U20 RNA (FIG. 10A) or dT15 DNA (FIG. 10B). Nucleic acid binding was determined by measuring fluorescence polarization following incubation of protein and nucleic acid at 37° C. Data were fit to a hyperbola using Kaleidagraph software.
(§2) Varying concentrations of NS3h were incubated with 500 pM 5′-fluorescein-labeled rU20 (Integrated DNA Technologies) in 50 mM MOPS-K+(pH 7.0), 10 mM NaCl, 50 μM EDTA, 0.1 mg/ml BSA for 5 minutes at 37° C. Binding was measured as a function of fluorescence polarization using a Beacon fluorescence polarization system. Data were fit to a hyperbola using Kaleidagraph software.

[3] = target: dT15 DNA; assay: DNA binding by fluorescence polarization; conditions: 37° C.
Procedure: as §1, §2

[4] = Coupled ATPase assay stimulated by polyU; type: biochemical; conditions: saturating polyU
Procedure: FIG. 11. ATPase activity of mutant NS3h was measured as a function of NADH concentration in a coupled assay at varying concentrations of polyU. Data were fit to a hyperbola using Kaleidagraph software. […] Specific activity of NS3h DDDD (▪) was lower.
NS3h was incubated with 5 mM ATP in 50 mM HEPES (pH=7.5), 5 mM EDTA, 10 mM MgCl2, 10 mM NaCl, 0.1 mg/ml BSA, 4 mM phosphoenolpyruvate, 10 U/ml pyruvate kinase/lactate dehydrogenase, and 0.7 mg/ml NADH. Absorbance of NADH at 380 nm was measured at 1 sec intervals for a period of 30 sec in the presence of the indicated concentrations of poly-U. Hydrolysis rates were calculated using an extinction coefficient of 1,210 M^−1 cm^−1 for NADH. Data were fit to a hyperbola using Kaleidagraph software.

[5] = test system: 45:30mer DNA substrate; assay: Steady state DNA unwinding assay; type: biochemical
Procedure: FIGS. 12A-C. Steady state unwinding activity of mutant versus wild type NS3h. A) The assay for measuring helicase unwinding activity is depicted. A partially duplexed substrate containing 30 bp and 15 nt of ss overhang (45:30mer) was incubated with NS3h in the presence of ATP and Mg^+2 leading to unwinding of the duplex. B) Comparison of unwinding of DNA and RNA substrates by NS3h. Otherwise identical 250 nM duplexed DNA and RNA substrates were incubated with 100 nM NS3h. Reactions were initiated by addition of 5 mM ATP and 10 mM MgCl2 and quenched by addition of 200 mM EDTA/0.7% SDS. C) Unwinding of 250 nM substrate under steady state conditions. Unwinding by 100 nM NS3h (●), NS3h KDA (∘), and NS3h DDDD (▪) occurred at rates of 5.3 nM min^−1, 5.7 nM min^−1, and 4.1 nM min^−1, respectively.
The substrate used was a 45-mer/30-mer containing 30 base pairs of double-stranded DNA with a 15 base 3′ single-stranded overhang. One strand was radiolabeled by incubation with γ-^32P-ATP and T4 polynucleotide kinase at 37° C. for 60 min. Unincorporated ATP was removed by SEPHADEX G-25 filtration. Equimolar amounts of labeled and complementary unlabeled strands were combined, heated to 95° C. for 10 min, and cooled slowly to room temperature to generate the final substrate. For steady state unwinding experiments, 100 nM NS3h was incubated with 250 nM substrate in 25 mM HEPES (pH=7.5), 0.5 mM EDTA, 10 mM MgCl2, 10 mM NaCl, 0.1 mg/ml BSA. Reactions were initiated by addition of 5 mM ATP. Aliquots were taken at specific time points and the reaction was quenched by addition of 200 mM EDTA, 0.7% SDS. Substrate and product were separated by native polyacrylamide gel electrophoresis and detected and quantified by phosphorimaging analysis.

[6] = test system: partial duplex DNA substrate (15 nt single stranded, 30 base pairs); assay: ATP-independent DNA unwinding assay; type: biochemical; conditions: 500 nM enzyme, excess over substrate, no ATP, 37° C.
Procedure: FIG. 13. Graph showing ATP-independent unwinding activity of NS3h wild-type, NS3h KDA, and NS3h DDDD. NS3h, 500 nM, was incubated with a partial duplex DNA substrate containing 15 nt of single stranded DNA and 30 base pairs at 37° C. Aliquots were quenched by addition of 100 μM poly dT and 60 nM of a 30mer oligonucleotide that served to prevent reannealing. ssDNA was separated from dsDNA by native polyacrylamide electrophoresis and the resulting fractions were quantified by using IMAGEQUANT software. DNA melting is shown for NS3h (●), NS3h KDA (♦), and NS3h DDDD (▪).
NS3h or NS3h mutant enzymes (500 nM) were mixed with 2 nM DNA substrate (described in steady state section) in 25 mM MOPS (pH 7.0), 10 mM NaCl, 0.1 mM EDTA (pH 8.0), 2 mM βME, and 0.1 mg/mL BSA at 37° C. Aliquots were transferred to a ‘quench solution’ containing 200 mM EDTA, 0.7% SDS, 5 mM ATP, 10 mM MgCl2, 60 nM annealing trap, and 100 μM poly-dT protein trap. Double- and single-stranded DNA were resolved on a native 20% polyacrylamide gel. The radiolabeled substrate and product were detected using a PHOSPHORIMAGER (Molecular Dynamics, Sunnyvale, Calif.); quantitation was performed with IMAGEQUANT software. The ratio of single- to double-stranded DNA was determined and plotted as a function of time.

[7] = test system: 45:30mer DNA substrate; assay: Single turnover DNA unwinding assay (quench-flow, two-step mixing); type: biochemical; conditions: for single turnover unwinding rate / amplitude for unwinding: 500 nM enzyme; for single turnover unwinding rate: 2 nM substrate, fit to equation 1; for amplitude for unwinding: single turnover
Procedure: FIG. 14. Single turnover DNA unwinding by NS3h and NS3h mutant enzymes. A two-step mixing technique was used to measure single-turnover unwinding in the presence of excess NS3h. NS3h (500 nM) or mutant enzyme was rapidly mixed with substrate followed by a 10-second incubation. A second, rapid mixing step followed in which ATP, Mg^+2, and protein trap (poly dT) was added. Data were fit according to equation 1 resulting in unwinding rates of 3.1±0.1 s^−1 and 3.7±0.1 s−1 for NS3h (●) and NS3h KDA (♦), respectively. The amplitudes for unwinding were 0.35±0.01 nM and 0.21±0.01 nM for NS3h and NS3h KDA, respectively.
Unwinding assays were carried out using a Quench-Flow apparatus (RQF-3, KinTek Instruments, Austin, Tex.) with a two-step mixing protocol (49). Reactions were carried out in 25 mM MOPS (pH 7.0), 10 mM NaCl, 0.1 mM EDTA (pH 8.0), 2 mM βME, and 0.1 mg/mL BSA at 37° C.; all concentrations are post-mixing. NS3h (500 nM) was mixed with 2 nM DNA substrate (described in steady state section) for 10 seconds before adding 5 mM ATP, 10 mM MgCl2, 60 nM annealing trap (complementary to the displaced strand), and 100 μM poly-dT protein trap. The reaction was quenched after 0.1-15 seconds by ejection into a tube containing 200 mM EDTA, 0.7% SDS. Double- and single-stranded DNA were resolved on a native 20% polyacrylamide gel. The radiolabeled substrate and product were detected using a PHOSPHORIMAGER (Molecular Dynamics, Sunnyvale, Calif.); quantitation was performed with IMAGEQUANT software. The ratio of single- to double-stranded DNA was determined and plotted as a function of time. Data were fit to Equation 1, using KALEIDAGRAPH (Synergy Software, Reading, Pa.). This equation describes a 5-step mechanism for DNA unwinding that is necessary to fit the substantial lag phase associated with unwinding of the substrate (49, 52, 53). A{1−[1+kobst+1/2 (kobst)^2+1/6 (kobst)^3+1/24(kobst)^4]e^−kobs^t} Eq. 1 Results Crystallization and Structural Analysis of NS3h Bound to (dU)16

[8] = 100 nM enzyme, 250 nM substrate

Molecule	luciferase activity of HCV luciferase replicon after peptide [1]	Kd [2]	Kd [3]	ATPase specific activity [4]	steady state unwinding rate [5, 8]	steady state unwinding rate ([5]; 45:30mer DNA, steady state conditions)	ATP-independent unwinding [6]	single turnover unwinding rate [7]	fraction of 45:30mer unwound ([7]; same substrate, same conditions for both forms (unpublished data))	amplitude for unwinding [7]
HIDAHFLSQTK-GGG-YARAAARQARA (HIDAHFLSQTKGGGYARAAARQARA; NS3-oligomerization inhibitor peptide with cell entry peptide) [HCV inhibitor peptide, 25 amino acid peptide: NS3 residues 541-551, three-glycine linker, peptide transduction domain …]	strongly reduced the luciferase activity									
NS3h: wild type HCV NS3 helicase domain, expressed and purified independently of NS3 protease (protein) AVDFVPVESMETTMRSPVFTDNSSPPAVPQTFQVAHLHAPTGSGKSTKVPAAYAAQGYKVLVLNPSVAATLGFGAYMSKAHGIDPNIRTGVRTITTGAPITYSTYGKFLADGGCSGGAYDIIICDECHSTDSTTILGIGTVLDQAETAGARLVVLATATPPGSVTVPHPNIEEVALSSTGEIPFYGKAIPIETIKGGRHLIFCHSKKKCDELAAKLSGLGLNAVAYYRGLDVSVIPTSGDVIVVATDALMTGFTGDFDSVIDCNTCVTQTVDFSLDPTFTIETTTVPQDAVSRSQRRGRTGRGRMGIYRFVTPGERPSGMFDSSVLCECYDAGCAWYELTPAETSVRLRAYLNTPGLPVCQDHLEFWESVFTGLTHIDAHFLSQTKQAGDNFPYLVAYQATVCARAQAPPPSWDQMWKCLIRLKPTLHGPTPLLYRLGAVQNEVTTTHPITKYIMACMSADLEVVT		47 ± 5 nM	5.9 ± 1.4 nM	126 s⁻¹	5.3 nM/min	approximately 1 nM/min	much greater ATP-independent unwinding than NS3h KDA or NS3h DDDD	3.1 ± 0.1 s⁻¹	17%	0.35 ± 0.01 nM
NS3h KDA: purified NS3 helicase domain with D543K/H545D/Q549A mutations (protein) AVDFVPVESMETTMRSPVFTDNSSPPAVPQTFQVAHLHAPTGSGKSTKVPAAYAAQGYKVLVLNPSVAATLGFGAYMSKAHGIDPNIRTGVRTITTGAPITYSTYGKFLADGGCSGGAYDIIICDECHSTDSTTILGIGTVLDQAETAGARLVVLATATPPGSVTVPHPNIEEVALSSTGEIPFYGKAIPIETIKGGRHLIFCHSKKKCDELAAKLSGLGLNAVAYYRGLDVSVIPTSGDVIVVATDALMTGFTGDFDSVIDCNTCVTQTVDFSLDPTFTIETTTVPQDAVSRSQRRGRTGRGRMGIYRFVTPGERPSGMFDSSVLCECYDAGCAWYELTPAETSVRLRAYLNTPGLPVCQDHLEFWESVFTGLTHIKADFLSATKQAGDNFPYLVAYQATVCARAQAPPPSWDQMWKCLIRLKPTLHGPTPLLYRLGAVQNEVTTTHPITKYIMACMSADLEVVT		38 ± 4 nM	2.6 ± 0.8 nM	108 s⁻¹	5.7 nM/min			3.7 ± 0.1 s⁻¹		0.21 ± 0.01 nM

Reference: US7465537B2, “Compounds and methods for inhibiting hepatitis C virus replication” (The Board of Trustees of the University of Arkansas, priority 2005, dated 2008)
